Laboratory results taken from the supplement of paper PMC12042874.
± gives the uncertainty stated by the source.

experiment: amyloid nucleation score (Sup35N fusion, yeast selection) (log enrichment); library NNK1; higher = more nucleation; inactive = no reads after selection
Outline: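 Plasmid inserts were Illumina-sequenced at input and output from psi-negative yeast expressing Sup35N fused to peptides of 20 random codons. The yeast were induced with 100 μM copper sulfate for 24 hours and grown 7 days at 30°C on medium lacking adenine and uracil, and sequences with under 100 input reads were excluded. Nucleation score is the DiMSum log enrichment of output over input reads, centred on the mode score of non-aggregating sequences.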

Substance | amyloid nucleation score
SNECLRNGAFYDCPVREAWM | -0.346 ± 0.27
LSGMDTLGIVRCAVA | -0.325 ± 0.46
VGVVGDYDLQIS | -1.2 ± 2.4
NWVGGYTEIALLA | -0.344 ± 0.78
NLFLVIPAFDLLMFGSERSS | 5.55 ± 0.063
SKTSEGLLLYVISYRNYYGP | 0.671 ± 0.4
FPASNAQNLRLFQVGYGRPQ | 0.185 ± 1.1
IWCSVNEWQYRVKVV | 0.03 ± 0.5
ISYRGSFHTNMWTCILRTAK | 0.082 ± 0.42
LWLLHGFDWWKCIYLPGRFL | 0.307 ± 0.97
TFLNFWPQFCMEFY | 5.98 ± 0.06
YSSRIVRVSVRRVIHQSLRS | 1.41 ± 0.52
CIMPMIGKYVGVFSSGSSIS | inactive
NNGAVVSGS | -0.046 ± 0.25
VAGFPVEDRLRQISSWAVSG | -1.07 ± 0.62
ACHRTWKWVLRLRLLMRNNL | -0.712 ± 0.8
WICQTGRFNELTHRCCVWFF | 0.762 ± 0.47
SLRKKVSSVCSC | 0.838 ± 0.54
TNFYAVFLLLGGSGF | 7.171 ± 0.051
ICGYWSLKVVCRMCHPYGNG | -1.17 ± 0.85
AWDVAS | 0.967 ± 0.6
FSITLTPHRGSVMNIYTANV | 1.59 ± 0.17

Substance | amyloid nucleation score
GWKVCN | 0.362 ± 1.4
TVNRMIFFMRLLYTRVKL | -1.68 ± 2.7
FTYRGYSDQLMVSLLSLLSE | 1.68 ± 0.48
RCCGLYVSLWIS | 0.425 ± 0.6
MQGDRQDGLYNKGDYPQFIF | -0.267 ± 0.39
LNLWPIDANVGWLWKRWRWR | -0.538 ± 2.1
QKLCCLSNVVLNTGP | inactive
LHLYIMS | inactive
LCVRAIVRSCNSWKKYSFPR | 0.031 ± 1
QVFVIIIFPCMQWYDMYCSD | 0.356 ± 0.55
YLNERE | -1.16 ± 1
SSNFSPLTIVVYNFCI | 7.744 ± 0.051
GHSFGTVTDCVANQYNFLNI | 2.37 ± 0.19
TYSSARDSS | -0.209 ± 0.63
GRFSVVAISHKQTFNFDWRT | 8.058 ± 0.072
PNDPGKLSHGVSVVLYFDEL | 1.5 ± 0.39
CCCISDHESNCDSDQSRLGF | 0.585 ± 0.36
GWSNSFA | 0.123 ± 0.44
LWYSFNVHTVHYYQCSDIYS | -0.142 ± 0.26
NSYFWSGEIIIEYQRP | -1.23 ± 0.65
GVTHKDMSNDYFMGD | -0.285 ± 0.47
DSLIDRSKVLKQTLYSTYWL | -0.12 ± 0.48

Substance | amyloid nucleation score
TSGLSGSESKESTDKCCIEC | 0.713 ± 0.92
DAPVTSSGSML | 0.008 ± 0.23
VSCANMNIDELTWHVDWWCL | 7.597 ± 0.047
QVWSPHSVSKFGPGPPVTEA | -0.388 ± 1.4
ASQRSQNCCIVESIDEVLFS | 0.85 ± 0.41
MQGFHSW | inactive
HAVSDFIPG | 0.69 ± 0.41
RFLSQNGNLIPGRRLPTGVR | 0.54 ± 0.54
NLSQSLVHRVSSVEYTLRLL | inactive
MSVMLIS | 0.126 ± 0.44
GGTSRLQDVDAALTGTWVSP | 0.042 ± 0.37
RANSGNVTFMVRPAFMVVLK | -0.389 ± 0.78
GSGSVHSWHSLINSSDIFVT | -0.682 ± 0.81
VYVSFTRNCVGCIGLD | 4.62 ± 0.061
HLRRVMYLFAANCGPRPAND | -0.69 ± 0.96
FQGRLVFVDCDIRLVALKGS | 3.88 ± 0.067
MISIS | 0.088 ± 0.26
CRLVVMVIVQLHGIDFELAL | 0.951 ± 0.54
SNVHCPWKL | -1.74 ± 2.7
NVDKHVWFGGVIVVNLWHIR | 6.827 ± 0.054
VLFGWGCGNTFSRPSNRGQR | 0.97 ± 0.37
VCTCFSSWAWEVNF | 3.28 ± 0.083

Substance | amyloid nucleation score
TSASVGLVMWTTWMRNQG | 3.75 ± 0.087
NLRHALRMVTNGLSCTRKHG | -0.278 ± 0.43
RMLLENVSVKRR | 0.678 ± 0.66
GGYVLPYSLFFGVPSIAFVG | 0.602 ± 0.7
SLNVNLMSRVYSSAREGGVS | 1.73 ± 0.2
EALCSTSEGILHKEWF | 0.178 ± 0.28
DWVLTGGRIWK | -0.803 ± 0.54
SSIMHSG | 0.925 ± 1.1
YDSRCMAVSFSGSLFSHLLE | -0.317 ± 0.45
LLVGMPPNIDM | -0.078 ± 0.41
YCCGDTPTFCSLKFIMS | 7.059 ± 0.047
HHVWGFRSMLDSLHRSDCIQ | -0.989 ± 2.7
YTRVLILNENATAIIWSE | 1.87 ± 0.4
VLYFYFFIQIRVGIQYSVKN | 2.41 ± 0.41
FSGHFNARGFSDSWYVCMIG | -0.855 ± 1.6
DSASGNILYIRKLVI | 1.84 ± 0.13
KMSAWQFGGHVLCNARMGYE | -0.112 ± 0.36
SFCAYFVAGIAGNIRVS | 0.098 ± 0.42
RLEYCSRRWLANTLSGGRSL | 0.002 ± 0.96
TRVFSCDACRKN | inactive
RYSYFSSASCLRYRAPKGRG | 0.098 ± 0.32
